What all share (assay): ITC
For orientation: In ITC the heat of successive injections is recorded.

The target of test [1] is T1, NELF-E 244-380 (Homo sapiens, UniProt P18615).
T1 chain: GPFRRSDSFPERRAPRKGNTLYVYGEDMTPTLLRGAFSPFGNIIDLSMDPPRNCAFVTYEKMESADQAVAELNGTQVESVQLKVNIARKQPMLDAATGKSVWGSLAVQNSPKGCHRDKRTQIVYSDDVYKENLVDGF

The target in test [2] is T2, ARS2 763-871 (Homo sapiens, UniProt Q9BXP5).
T2 chain: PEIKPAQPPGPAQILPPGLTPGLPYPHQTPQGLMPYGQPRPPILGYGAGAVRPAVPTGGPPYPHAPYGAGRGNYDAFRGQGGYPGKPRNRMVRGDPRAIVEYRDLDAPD

Test [3] concerns the target PHAX (Homo sapiens, UniProt Q9H814).
In test [4] the target is T3, NELF-E 360-380 (Homo sapiens, UniProt P18615, m7GTP).
T3 chain: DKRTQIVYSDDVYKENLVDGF

Test [5] deals with T4, PHAX 103-308 (Homo sapiens, UniProt Q9H814).
T4 chain: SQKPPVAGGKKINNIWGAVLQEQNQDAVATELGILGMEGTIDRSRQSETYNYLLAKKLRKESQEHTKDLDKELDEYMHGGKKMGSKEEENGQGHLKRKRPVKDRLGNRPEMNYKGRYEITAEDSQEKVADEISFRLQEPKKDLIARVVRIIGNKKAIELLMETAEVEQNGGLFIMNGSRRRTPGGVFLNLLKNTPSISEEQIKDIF

Test [6] addresses T5, ARS2 845-871 (Homo sapiens, UniProt Q9BXP5, m7GTP).
T5 chain: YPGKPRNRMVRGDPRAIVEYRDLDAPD

The target of test [7] is T6, ARS2 827-871 (Homo sapiens, UniProt Q9BXP5, m7GTP).
T6 chain: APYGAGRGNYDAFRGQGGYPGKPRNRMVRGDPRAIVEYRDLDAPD

Usually Kd stands for a measure of binding affinity in units of concentration. High values mean a looser complex, low ones a tighter complex.

Chain of PHAX (Q9H814 2-394): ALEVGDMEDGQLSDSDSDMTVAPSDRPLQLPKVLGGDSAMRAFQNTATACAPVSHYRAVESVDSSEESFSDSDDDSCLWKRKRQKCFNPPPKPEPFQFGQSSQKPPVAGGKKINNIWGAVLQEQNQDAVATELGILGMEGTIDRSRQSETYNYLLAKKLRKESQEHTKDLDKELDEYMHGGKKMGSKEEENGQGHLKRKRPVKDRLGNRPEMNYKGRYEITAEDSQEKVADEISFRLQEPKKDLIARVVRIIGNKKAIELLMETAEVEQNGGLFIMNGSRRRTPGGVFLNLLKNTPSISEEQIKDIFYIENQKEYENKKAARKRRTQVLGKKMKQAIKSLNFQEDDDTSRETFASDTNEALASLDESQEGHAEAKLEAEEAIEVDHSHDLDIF

B1: CBC (protein)
chain 1: MSRRRHSDENDGGQPHKRRKTSDANETEDHLESLICKVGEKSACSLESNLEGLAGVLEADLPNYKSKILRLLCTVARLLPEKLTIYTTLVGLLNARNYNFGGEFVEAMIRQLKESLKANNYNEAVYLVRFLSDLVNCHVIAAPSMVAMFENFVSVTQEEDVPQVRRDWYVYAFLSSLPWVGKELYEKKDAEMDRIFANTESYLKRRQKTHVPMLQVWTADKPHPQEEYLDCLWAQIQKLKKDRWQERHILRPYLAFDSILCEALQHNLPPFTPPPHTEDSVYPMPRVIFRMFDYTDDPEGPVMPGSHSVERFVIEENLHCIIKSHWKERKTCAAQLVSYPGKNKIPLNYHIVEVIFAELFQLPAPPHIDVMYTTLLIELCKLQPGSLPQVLAQATEMLYMRLDTMNTTCVDRFINWFSHHLSNFQFRWSWEDWSDCLSQDPESPKPKFVREVLEKCMRLSYHQRILDIVPPTFSALCPANPTCIYKYGDESSNSLPGHSVALCLAVAFKSKATNDEIFSILKDVPNPNQDDDDDEGFSFNPLKIEVFVQTLLHLAAKSFSHSFSALAKFHEVFKTLAESDEGKLHVLRVMFEVWRNHPQMIAVLVDKMIRTQIVDCAAVANWIFSSELSRDFTRLFVWEILHSTIRKMNKHVLKIQKELEEAKEKLARQHKRRSDDDDRSSDRKDGVLEEQIERLQEKVESAQSEQKNLFLVIFQRFIMILTEHLVRCETDGTSVLTPWYKNCIERLQQIFLQHHQIIQQYMVTLENLLFTAELDPHILAVFQQFCALQA
chain 2: SGGLLKALRSDSYVELSQYRDQHFRGDNEEQEKLLKKSCTLYVGNLSFYTTEEQIYELFSKSGDIKKIIMGLDKMKKTACGFCFVEYYSRADAENAMRYINGTRLDDRIIRTDWDAGFKEGRQYGRGRSGGQVRDEYRQDYDAGRGGYGKLAQNQ
modifications: m7GTP
As for B1, the dissociation constant (Kd) in test [1] was ~50 nM; in test [2] it was 1000 nM.

B2: CBC (protein)
chain 1: MSRRRHSDENDGGQPHKRRKTSDANETEDHLESLICKVGEKSACSLESNLEGLAGVLEADLPNYKSKILRLLCTVARLLPEKLTIYTTLVGLLNARNYNFGGEFVEAMIRQLKESLKANNYNEAVYLVRFLSDLVNCHVIAAPSMVAMFENFVSVTQEEDVPQVRRDWYVYAFLSSLPWVGKELYEKKDAEMDRIFANTESYLKRRQKTHVPMLQVWTADKPHPQEEYLDCLWAQIQKLKKDRWQERHILRPYLAFDSILCEALQHNLPPFTPPPHTEDSVYPMPRVIFRMFDYTDDPEGPVMPGSHSVERFVIEENLHCIIKSHWKERKTCAAQLVSYPGKNKIPLNYHIVEVIFAELFQLPAPPHIDVMYTTLLIELCKLQPGSLPQVLAQATEMLYMRLDTMNTTCVDRFINWFSHHLSNFQFRWSWEDWSDCLSQDPESPKPKFVREVLEKCMRLSYHQRILDIVPPTFSALCPANPTCIYKYGDESSNSLPGHSVALCLAVAFKSKATNDEIFSILKDVPNPNQDDDDDEGFSFNPLKIEVFVQTLLHLAAKSFSHSFSALAKFHEVFKTLAESDEGKLHVLRVMFEVWRNHPQMIAVLVDKMIRTQIVDCAAVANWIFSSELSRDFTRLFVWEILHSTIRKMNKHVLKIQKELEEAKEKLARQHKRRSDDDDRSSDRKDGVLEEQIERLQEKVESAQSEQKNLFLVIFQRFIMILTEHLVRCETDGTSVLTPWYKNCIERLQQIFLQHHQIIQQYMVTLENLLFTAELDPHILAVFQQFCALQA
chain 2: SGGLLKALRSDSYVELSQYRDQHFRGDNEEQEKLLKKSCTLYVGNLSFYTTEEQIYELFSKSGDIKKIIMGLDKMKKTACGFCFVEYYSRADAENAMRYINGTRLDDRIIRTDWDAGFKEGRQYGRGRSGGQVRDEYRQDYDAGRGGYGKLAQNQ
For the molecule B2, the Kd was 300 nM in test [3]; ~400 nM in test [1]; ~3.3 µM in test [4]; 600 nM in test [5]; 1100 nM in test [6]; 1000 nM in test [7].
